One may read the IC50 as the concentration that gives 50% inhibition.

In the Immune Epitope Database (IEDB) one finds IC50 data, which are given here for 15 sequences.

Targets include HLA-B*35:01; HLA-B*53:01; HLA-B*07:02; HLA-A*02:01; HLA-B*44:03.
Assay in all cases: IEDB peptide-MHC binding, purified MHC/competitive/radioactivity; ≥ and ≤ were set here for values at or beyond the usual limits of such assays
Holding throughout (conditions): source organism: Bordetella pertussis

APNALAWAL: the IC50 with HLA-B*35:01 is 6.26 µM.

For the sequence VPVSEHCTV, the IC50 with HLA-B*53:01 is 69.9 µM.

In the case of RPQITDAVT, in the test with HLA-B*07:02, the IC50 was 16.3 µM.

For GIVIPPKAL, in the test with HLA-B*07:02, the IC50 came to 69.6 µM.

Consider LFTQQGGAY, for which, in the test with HLA-B*35:01, the concentration for half-maximal inhibition (IC50) was found to be 69.9 µM.

Take ITSYVGFSV: the IC50 with HLA-A*02:01 was found to be 4.39 µM.

Turning to RTHGVGASL, the IC50 with HLA-B*07:02 amounted to 1.58 µM.

Regarding LAAGAGLTL, the IC50 with HLA-B*53:01 worked out at 58.7 µM; in the test with HLA-B*07:02, 7.38 µM.

As to RLRKMLYLI, the IC50 in the test with HLA-A*02:01 was found to be 14.9 µM.

Take MESNKDIVI: the IC50 with HLA-B*44:03 came to 9.93 µM.

For GELMAAQVA, in the test with HLA-B*44:03, the IC50 stood at 0.572 µM.

On to CFGKDLKRP, for which, in the test with HLA-B*07:02, the IC50 was 69.6 µM.

IVVEAGELV: in the test with HLA-A*02:01, the half-inhibitory concentration (IC50) is 9.86 µM.

Regarding PDAHVPFCF, in the test with HLA-B*35:01, the IC50 amounted to 69.9 µM.

For WVMTDNSNV, the IC50 with HLA-A*02:01 stood at 29.2 µM.
